Consider 9 molecules from patent US20150320880A1, “ANTIBODY DRUG CONJUGATES” (NOVARTIS AG, priority 2013, published 2015).

For assay [1], the target named is T1, Human cKIT D1-5 (human cKIT tr. variant 2, residues 26-520, C-terminal His tag) (human, UniProt P10721 26-524).
T1 construct: also called human cKIT ECD; Human c-Kit ECD
Nature of the assay: SPR (Biacore T100), CM5 chip, method as in Example 7; unconjugated antibody. A general note: In SPR one partner is held on a chip, and binding of the other changes the refractive index at the surface.

Assay [2] deals with T2, Rat cKIT D1-5 (residues 25-526, C-terminal mFc) (rat).
T2 construct: The entry includes the linker and mouse Fc tag; also called rat cKIT-mFc
T2 chain: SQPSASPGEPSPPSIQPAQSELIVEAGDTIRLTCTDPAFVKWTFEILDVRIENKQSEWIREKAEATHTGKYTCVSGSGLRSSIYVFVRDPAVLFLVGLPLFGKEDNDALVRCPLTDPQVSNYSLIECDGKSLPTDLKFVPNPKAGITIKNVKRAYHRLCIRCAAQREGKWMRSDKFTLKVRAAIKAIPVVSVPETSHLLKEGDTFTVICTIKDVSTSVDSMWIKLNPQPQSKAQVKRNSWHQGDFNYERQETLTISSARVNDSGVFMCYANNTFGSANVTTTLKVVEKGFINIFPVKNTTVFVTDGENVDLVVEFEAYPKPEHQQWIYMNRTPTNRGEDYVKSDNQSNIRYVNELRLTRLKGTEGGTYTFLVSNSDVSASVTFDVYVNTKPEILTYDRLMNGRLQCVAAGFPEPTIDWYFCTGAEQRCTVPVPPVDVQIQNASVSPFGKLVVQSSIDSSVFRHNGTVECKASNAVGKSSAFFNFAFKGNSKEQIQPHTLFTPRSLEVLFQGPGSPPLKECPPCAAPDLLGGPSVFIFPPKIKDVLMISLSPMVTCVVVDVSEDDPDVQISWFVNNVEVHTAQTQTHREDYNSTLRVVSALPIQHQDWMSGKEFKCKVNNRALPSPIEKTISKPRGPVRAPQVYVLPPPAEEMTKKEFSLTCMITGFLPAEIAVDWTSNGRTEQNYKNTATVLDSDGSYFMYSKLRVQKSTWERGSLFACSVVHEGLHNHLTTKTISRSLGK
Nature of the assay: SPR (Biacore 2000), antibody captured on anti-human Fc.

Assay [3] concerns the target T3, Mouse cKIT ECD, C-terminal 6x His (Sino Biological Inc, catalog number 50530-M08H) (mouse, UniProt P05532 25-527).
T3 construct: extracellular domain; Bought protein
T3 sequence (looked up): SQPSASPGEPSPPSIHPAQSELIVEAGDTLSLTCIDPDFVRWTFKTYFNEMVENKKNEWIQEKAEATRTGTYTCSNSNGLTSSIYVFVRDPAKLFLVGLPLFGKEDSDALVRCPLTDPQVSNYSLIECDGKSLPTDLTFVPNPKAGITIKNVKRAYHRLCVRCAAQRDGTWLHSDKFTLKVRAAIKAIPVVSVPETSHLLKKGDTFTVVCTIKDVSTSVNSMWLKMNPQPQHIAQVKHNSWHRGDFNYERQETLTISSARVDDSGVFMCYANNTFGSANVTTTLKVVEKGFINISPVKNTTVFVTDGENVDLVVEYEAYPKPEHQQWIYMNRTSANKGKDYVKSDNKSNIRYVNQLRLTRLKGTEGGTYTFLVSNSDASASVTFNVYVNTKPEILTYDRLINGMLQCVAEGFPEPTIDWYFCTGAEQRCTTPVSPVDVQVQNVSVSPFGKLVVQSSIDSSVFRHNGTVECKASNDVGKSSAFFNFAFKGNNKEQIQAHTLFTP
Described as above.

Assay [4] deals with T4, Cynomolgus monkey cKIT D1-5 (residues 25-520, C-terminal His tag) (cynomolgus monkey, UniProt P10721 25-520 (human entry)).
T4 construct: the signal peptide was not part of the protein in the assay; also called cyno cKIT; cynomolgus monkey ECD
T4 chain: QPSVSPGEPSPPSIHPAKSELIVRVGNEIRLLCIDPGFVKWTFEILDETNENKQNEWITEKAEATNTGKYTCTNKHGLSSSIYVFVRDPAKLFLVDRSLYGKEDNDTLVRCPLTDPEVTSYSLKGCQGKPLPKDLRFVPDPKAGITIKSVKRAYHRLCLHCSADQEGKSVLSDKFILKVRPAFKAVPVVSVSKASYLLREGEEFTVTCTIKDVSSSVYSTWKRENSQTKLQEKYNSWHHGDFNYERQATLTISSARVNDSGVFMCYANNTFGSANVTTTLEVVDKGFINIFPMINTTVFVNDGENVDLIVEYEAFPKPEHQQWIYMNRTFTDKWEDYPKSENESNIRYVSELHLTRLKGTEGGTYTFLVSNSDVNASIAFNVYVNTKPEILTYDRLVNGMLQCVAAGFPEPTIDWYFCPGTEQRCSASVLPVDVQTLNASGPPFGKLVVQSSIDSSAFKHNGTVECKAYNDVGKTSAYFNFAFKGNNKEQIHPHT
Nature of the assay: SPR (Biacore 2000), antibody captured on anti-human Fc, cKIT ECD as analyte, 25 C, 1:1 fit.

Assay [5] addresses T1, Human cKIT D1-5 (human cKIT tr. variant …). The description is as above.
Another assay concerns the target mouse cKIT ECD. Nature of the assay: SPR (Biacore 2000) affinity measurement. To be noted: 25° C. In kind it is binding. Here is the method:
(§1) Affinity of the antibodies to cKIT species orthologues and also to cKIT was determined using SPR technology using a Biacore® 2000 instrument (GE Healthcare, Pittsburgh, Pa.) and with CM5 sensor chips.
(§2) Briefly, HBS-P (0.01 M HEPES, pH 7.4, 0.15 M NaCl, 0.005% Surfactant P20) supplemented with 2% Odyssey® blocking buffer (Li-Cor Biosciences, Lincoln, Nebr.) was used as the running buffer for all the experiments. The immobilization level and analyte interactions were measured by response unit (RU). Pilot experiments were performed to test and confirm the feasibility of the immobilization of the anti-human Fc antibody (Catalog number BR100839, GE Healthcare, Pittsburgh, Pa.) and the capture of the test antibodies.
(§3) For kinetic measurements, the experiments were performed in which the antibodies were captured to the sensor chip surface via the immobilized anti-human Fc antibody and the ability of the cKIT proteins to bind in free solution was determined Briefly, 25 μg/ml of anti-human Fc antibody at pH 5 was immobilized on a CM5 sensor chip through amine coupling at flow rate of 5 μl/minute on all two flow cells to reach 10,500 RUs. 0.1-1 μg/ml of test antibodies were then injected at 10 μl/min for 1 minute. Captured levels of the antibodies were generally kept below 200 RUs. Subsequently, 3.125-50 nM of cKIT receptor extracellular domains (ECD) were diluted in a 2-fold series and injected at a flow rate of 40 μl/min for 3 min over both reference and test flow cells. Table of tested ECDs is listed below. Dissociation of the binding was followed for 10 min. After each injection cycle, the chip surface was regenerated with 3 M MgCl2 at 10 μl/min for 30 s.

The target of the next assay is T5, human cKIT ECD (Homo sapiens, UniProt P10721).
T5 construct: Human cKIT tr. variant 2, residues 26-520-TAG; made in house; host or cells: HEK293 derived cell lines (293FS), transient transfection
T5 sequence (P10721 with tags, fused parts or gaps isoform P10721-2): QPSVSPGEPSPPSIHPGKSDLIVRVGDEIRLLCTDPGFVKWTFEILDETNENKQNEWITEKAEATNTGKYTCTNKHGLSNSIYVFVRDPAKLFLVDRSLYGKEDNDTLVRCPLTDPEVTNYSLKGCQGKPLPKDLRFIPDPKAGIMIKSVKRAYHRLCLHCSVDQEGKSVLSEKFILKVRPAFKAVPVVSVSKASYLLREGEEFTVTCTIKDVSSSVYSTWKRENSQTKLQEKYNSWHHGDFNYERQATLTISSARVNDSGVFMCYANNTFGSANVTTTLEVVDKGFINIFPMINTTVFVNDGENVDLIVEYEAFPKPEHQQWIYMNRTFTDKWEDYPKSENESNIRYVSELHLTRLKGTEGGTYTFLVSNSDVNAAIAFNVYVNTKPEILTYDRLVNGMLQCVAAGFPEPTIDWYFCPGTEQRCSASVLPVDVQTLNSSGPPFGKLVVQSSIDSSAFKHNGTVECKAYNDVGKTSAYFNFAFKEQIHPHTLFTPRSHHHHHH
As to the kind of experiment: SPR (Biacore 2000) affinity measurement. It is filed as binding. To be noted: 25° C. The protocol: as §1, §2, §3

The target of assay [6] is T1, Human cKIT D1-5 (human cKIT tr. variant …). As to the kind of experiment: SPR (Biacore T100), CM5 chip, method as in Example 7; MCC-DM1 conjugate.

Positions count from the first letter of the chain named.

For orientation: Kd means the free concentration of one partner at which half of the binding sites on the other are occupied at equilibrium, for simple one-to-one binding.

T1 sequence (P10721 other isoform, or with tags, fused parts or gaps mutant limits assumed): as the sequence (P10721 with tags, fused parts or gaps isoform P10721-2) above

B1: NEG086 (antibody, human IgG1, kappa, V domains shown)
VH: EVQLVESGGGLVQPGGSLRLSCAASGFTFSDYYMAWVRQAPGKGLEWVANINQIAGSTYYVDSVQGRFTISRDNAKNSLYLQMNSLRAEDTAVYYCARGDYYGTTYWYFDVWGQGTTVTVSS
VL: DIQMTQSPSSLSASVGDRVTITCRASQSISSYLNWYQQKPGKAPKLLIYYTSRLQSGVPSRFSGSGSGTDFTLTISSLQPEDFATYYCQQGRRLWSFGGGTKVEIKR
notes: Humanized, optimized variant of 9P3; human IgG1 kappa
Turning to B1, the figures for the Kd in assay [1], in assay [4] and in assay [5] were 1.4 nM, 1.34 nM and 1.44 nM, respectively. Also, the binding result in assay [2] and in assay [3] was “no binding (tested: 3.125-50 nM of cKIT ECD injected)” throughout.

B2: NEG087: anti-cKIT antibody of Table 1; VH SEQ ID NO 118, VL SEQ ID NO 127 (antibody, V domains shown)
VH: B1 VH with N50S, I54N, A55T, V61L, Q65R
VL: DIQMTQSPSSLSASVGDRVTITCRASQSISSYLNWYQQKPGKAPKLLIYYTSRLQSGVPSRFSGSGSGTDFTLTISSLQPEDFATYYCQQGRRLWSFGGGTKVEIK
For the molecule B2, the “Affinity mouse cKIT (nM)” value at mouse cKIT ECD is reported as “Not reactive”. In addition, in the assay with human cKIT ECD, the “Affinity human cKIT (nM)” value is listed as “nanomolar level”.

B3: NEG027: anti-cKIT antibody of Table 1; VH SEQ ID NO 64, VL SEQ ID NO 73 (antibody, V domains shown)
VH: B1 VH with N50S, I54N, A55T, V61L, Q65R
VL: EIVMTQSPATLSLSPGERATLSCRASQDISNYLNWYQQKPGQAPRLLIYYTSRLQSGIPARFSGSGSGTDYTLTISSLEPEDFAVYYCQQGKKLWSFGGGTKVEIK
Regarding B3, the “Affinity mouse cKIT (nM)” value on mouse cKIT ECD is “Not reactive”. The “Affinity human cKIT (nM)” value with human cKIT ECD is on record as “nanomolar level”.

B4: NEG026: anti-cKIT antibody of Table 1; VH SEQ ID NO 46, VL SEQ ID NO 55 (antibody, V domains shown)
VH: B1 VH with I54N, A55T
VL: B3 VL
B4: at mouse cKIT ECD, the “Affinity mouse cKIT (nM)” value was “Not reactive”.

B5: NEG086-MCC-DM1 (antibody, human IgG1, kappa, V domains shown)
VH: B1 VH
VL: B1 VL
modifications: DM1 linked through the MCC (SMCC) linker to primary amines of the antibody, sites not stated; DM1 linked through the MCC (SMCC) linker to primary amines of the antibody, sites not stated; average MAR 3.5 (Table 7)
notes: Antibody drug conjugate of NEG086
Regarding B5, the Kd in assay [6] amounted to 1.8 nM.

B6: NEG086: anti-cKIT antibody of Table 1; VH SEQ ID NO 100, VL SEQ ID NO 109 (antibody, V domains shown)
VH: B1 VH
VL: B2 VL
In the case of B6, the “Affinity mouse cKIT (nM)” value on mouse cKIT ECD is “Not reactive”. In addition, the “Affinity human cKIT (nM)” value with human cKIT ECD is on record as “nanomolar level”.

B7: NEG085 (antibody, human IgG1, kappa, V domains shown)
VH: B1 VH with T28A, D31G, Q53Y, I54P, A55G, G56S, V61L, Q65K
VL: B1 VL
notes: Humanized, optimized variant of 9P3; human IgG1 kappa; also called unconjugated NEG085
Regarding B7, the figures for the Kd in assay [1], in assay [4] and in assay [5] were 4.2 nM, 6.14 nM and 8.4 nM, respectively. Also, the binding result in assay [2] and in assay [3] was “no binding (tested: 3.125-50 nM of cKIT ECD injected)” in each case.

B8: NEG085-MCC-DM1 (antibody, human IgG1, kappa, V domains shown)
VH: B1 VH with T28A, D31G, Q53Y, I54P, A55G, G56S, V61L, Q65K
VL: B1 VL
modifications: DM1 linked through the MCC (SMCC) linker to primary amines of the antibody, sites not stated; DM1 linked through the MCC (SMCC) linker to primary amines of the antibody, sites not stated; average MAR 3.5 (Table 7)
notes: Antibody drug conjugate of NEG085
As to B8, the Kd in assay [6] was determined as 5.2 nM.

B9: NEG024 (antibody, human IgG1, kappa, V domains shown)
VH: B1 VH with V61L, Q65R
VL: EIVMTQSPATLSLSPGERATLSCRASQDISNYLNWYQQKPGQAPRLLIYYTSRLQSGIPARFSGSGSGTDYTLTISSLEPEDFAVYYCQQGKKLWSFGGGTKVEIKR
notes: as for B1
Take B9: the Kd in assay [1] was 1.3 nM; in assay [4], 1.15 nM; in assay [5] it was 1.31 nM. Further, the binding result in assay [2] and in assay [3] was “no binding (tested: 3.125-50 nM of cKIT ECD injected)” in each case.
